According to the supplement of paper PMC7877785:
± gives the uncertainty stated by the source.

Test: self-splicing fitness, log relative to wild type (ln ratio); higher = more splicing; Tetrahymena group I intron in knt gene, E. coli kanamycin selection, DiMSum; sequences stand for … in CUCUCU…GGAGGGAAAAGUUAUCAGGCAUGCACCUGGUAGCUAGUCUUUAAACCAAUAGAUUGCAUCGGUUUAAAAGGCAAGACCGUCAAAUUGCGGGAAAGGGGUCAACAGCCGUUCAGUACCAAGUCUCAGGGGAAACUUUGAGAUGGCCUUGCAAAGGGUAUGGUAAUAAGCUGACGGACAUGGUCCUAACCACGCAGCCAAGUCCUAAGUCAACAGAUCUUCUGUUGAUAUGGAUGCAGUUCACAGACUAAAUGUCGGUCGGGGAAGAUGUAUUCUUCUCAUAAGAUAUAGUCGGACCUCUCCUUAAUGGGAGCUAGCGGAUGAAGUGAUGCAACACUGGAGCCGCUGGGAACUAAUUUGUAUGCGAAAGUAUAUUGAUUAGUUUUGGAGUACUCGUGGUCG
Method in brief: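 Colonies from six replicate transformations of E. coli BL21(DE3) were pooled and amplicon-sequenced on an Illumina HiSeq 2500. The library placed an intron with all eight P1ex-region nucleotides randomised inside the knt kanamycin-resistance gene on pET-22b(+), and cells grew overnight at 37°C or 30°C on LB agar with or without 25 μg/mL kanamycin (plus 100 μg/mL carbenicillin, 50 μM IPTG, 0.2% rhamnose). Fitness is the DiMSum error-weighted combination of wild-type-normalised replicate fold changes, kanamycin versus none.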

Row | Sequence | self-splicing fitness (ln) (30 °C) | self-splicing fitness (ln) (37 °C)
1 | AGCUAGCAAUAUUACGGUGU | -2.56 ± 0.11 | -1.22 ± 0.11
2 | AGCUAGCAAUAUUACGUAUA | -2.28 ± 0.15 | -2.12 ± 0.23
3 | AGCUAGCAAUAUUACGUCCA | -1.52 ± 0.12 | -0.378 ± 0.11
4 | AGCUAGCAAUAUUACGUCUG | -1.88 ± 0.097 | -1.56 ± 0.13
5 | AGCUAGCAAUAUUACGUGGC | – | -2.27 ± 0.26
6 | AGCUAGCAAUAUUACGUUUG | -4.09 ± 0.24 | -0.747 ± 0.15
7 | AGGAAGCAAUAUUACGACAA | -1.66 ± 0.12 | -1.49 ± 0.14
8 | AGGAAGCAAUAUUACGACGU | 0.0515 ± 0.072 | 0.213 ± 0.076
9 | AGGAAGCAAUAUUACGAGUU | -3.11 ± 0.12 | -1.03 ± 0.11
10 | AGGAAGCAAUAUUACGAUAG | -3.02 ± 0.28 | -1.55 ± 0.38
11 | AGGAAGCAAUAUUACGCAAG | -3.11 ± 0.22 | -1.45 ± 0.13
12 | AGGAAGCAAUAUUACGCAAU | -2.58 ± 0.25 | -2 ± 0.21
13 | AGGAAGCAAUAUUACGCAGC | -3.55 ± 0.33 | -1.47 ± 0.31
14 | AGGAAGCAAUAUUACGCAGG | -3.16 ± 0.25 | -2.21 ± 0.3
15 | AGGAAGCAAUAUUACGCCGG | -0.87 ± 0.17 | -0.612 ± 0.23
16 | AGGAAGCAAUAUUACGCCUC | -2.44 ± 0.44 | -0.418 ± 0.46
17 | AGGAAGCAAUAUUACGCCUG | -1.15 ± 0.14 | 0.257 ± 0.17
18 | AGGAAGCAAUAUUACGCGAU | -3.28 ± 0.28 | -2.11 ± 0.25
19 | AGGAAGCAAUAUUACGCGCU | -1.01 ± 0.13 | -0.788 ± 0.17
20 | AGGAAGCAAUAUUACGCUCC | -1.87 ± 0.31 | –
21 | AGGAAGCAAUAUUACGGCAG | -2.3 ± 0.31 | -0.552 ± 0.32
22 | AGGAAGCAAUAUUACGGGCG | -0.564 ± 0.11 | -0.865 ± 0.15
23 | AGGAAGCAAUAUUACGUAAU | -0.858 ± 0.14 | -1.42 ± 0.18
24 | AGGAAGCAAUAUUACGUCGG | -2.61 ± 0.15 | -1.13 ± 0.15

Row | Sequence | self-splicing fitness (ln) (30 °C) | self-splicing fitness (ln) (37 °C)
25 | AGGAAGCAAUAUUACGUGAG | -0.821 ± 0.1 | -1.57 ± 0.14
26 | AGGAAGCAAUAUUACGUGCA | -1.12 ± 0.11 | -1.32 ± 0.13
27 | AGGAAGCAAUAUUACGUGGG | -4.36 ± 0.31 | -3.38 ± 0.23
28 | AGGAAGCAAUAUUACGUGUA | -2.06 ± 0.1 | -0.914 ± 0.085
29 | AGGAAGCAAUAUUACGUUCA | -0.532 ± 0.13 | -1.05 ± 0.21
30 | AGGCAGCAAUAUUACGAAUA | -2.67 ± 0.25 | -2.08 ± 0.22
31 | AGGCAGCAAUAUUACGAUCG | -0.369 ± 0.077 | 0.135 ± 0.093
32 | AGGCAGCAAUAUUACGCAAG | -1.22 ± 0.072 | -0.387 ± 0.098
33 | AGGCAGCAAUAUUACGCCGU | -1.92 ± 0.19 | -0.237 ± 0.17
34 | AGGCAGCAAUAUUACGCGUU | -2.29 ± 0.12 | -0.692 ± 0.11
35 | AGGCAGCAAUAUUACGGAAC | -4.21 ± 0.47 | -2.29 ± 0.36
36 | AGGCAGCAAUAUUACGGACC | -0.728 ± 0.14 | -0.53 ± 0.18
37 | AGGCAGCAAUAUUACGGAGG | -4.29 ± 0.26 | -2.66 ± 0.25
38 | AGGCAGCAAUAUUACGGCUA | -0.132 ± 0.069 | -0.399 ± 0.078
39 | AGGCAGCAAUAUUACGGGAU | -2.85 ± 0.16 | -1.39 ± 0.14
40 | AGGCAGCAAUAUUACGGGGU | -3.54 ± 0.21 | -3.25 ± 0.37
41 | AGGCAGCAAUAUUACGGUUC | -1.43 ± 0.14 | -1.8 ± 0.19
42 | AGGCAGCAAUAUUACGUAGC | -2.64 ± 0.23 | -1.29 ± 0.17
43 | AGGCAGCAAUAUUACGUAGG | -2.04 ± 0.083 | -1.64 ± 0.12
44 | AGGCAGCAAUAUUACGUCCU | -3.02 ± 0.26 | -1.29 ± 0.37
45 | AGGCAGCAAUAUUACGUCGG | -0.675 ± 0.08 | -0.941 ± 0.09
46 | AGGCAGCAAUAUUACGUCGU | -0.986 ± 0.058 | -0.962 ± 0.088
47 | AGGCAGCAAUAUUACGUCUG | -2.66 ± 0.15 | -1.51 ± 0.15
48 | AGGCAGCAAUAUUACGUGAA | -1.12 ± 0.07 | -0.932 ± 0.11

Row | Sequence | self-splicing fitness (ln) (30 °C) | self-splicing fitness (ln) (37 °C)
49 | AGGGAGCAAUAUUACGAACC | -1.52 ± 0.23 | -1.48 ± 0.29
50 | AGGGAGCAAUAUUACGAGCG | -2.94 ± 0.47 | -0.874 ± 0.43
51 | AGGGAGCAAUAUUACGCAAU | – | -1.7 ± 0.47
52 | AGGGAGCAAUAUUACGCAGG | – | -0.965 ± 0.24
53 | AGGGAGCAAUAUUACGCCCG | -3.31 ± 0.5 | -0.737 ± 0.49
54 | AGGGAGCAAUAUUACGCCGU | -2.11 ± 0.42 | -0.233 ± 0.39
55 | AGGGAGCAAUAUUACGCCUU | -3.04 ± 0.36 | –
56 | AGGGAGCAAUAUUACGCGCG | -1.62 ± 0.35 | -1.11 ± 0.37
57 | AGGGAGCAAUAUUACGGAUU | -4.58 ± 0.38 | -2.67 ± 0.31
58 | AGGGAGCAAUAUUACGGCGG | -2.87 ± 0.21 | -2.73 ± 0.3
59 | AGGGAGCAAUAUUACGUCAA | -3.37 ± 0.44 | -2.52 ± 0.45
60 | AGGGAGCAAUAUUACGUCCU | -2.66 ± 0.29 | -1.55 ± 0.24
61 | AGGGAGCAAUAUUACGUCUU | -2.53 ± 0.15 | -0.226 ± 0.15
62 | AGGGAGCAAUAUUACGUGUU | -2.63 ± 0.31 | -1.73 ± 0.29
63 | AGGUAGCAAUAUUACGAAAG | -3.732 ± 0.036 | -2.49 ± 0.045
64 | AGGUAGCAAUAUUACGAAGA | -2.84 ± 0.03 | -1.83 ± 0.038
65 | AGGUAGCAAUAUUACGACAC | -0.582 ± 0.018 | -0.427 ± 0.036
66 | AGGUAGCAAUAUUACGACCG | -0.101 ± 0.02 | 0.197 ± 0.039
67 | AGGUAGCAAUAUUACGCAAC | -3.73 ± 0.042 | -2.61 ± 0.049
68 | AGGUAGCAAUAUUACGCGCG | -0.525 ± 0.016 | -0.215 ± 0.035
69 | AGGUAGCAAUAUUACGCGGG | -3.612 ± 0.026 | -2.38 ± 0.037
70 | AGGUAGCAAUAUUACGCGUA | -1.22 ± 0.017 | -0.701 ± 0.034
71 | AGGUAGCAAUAUUACGCUGC | -3.88 ± 0.042 | -2.79 ± 0.054
72 | AGGUAGCAAUAUUACGGACU | 0.0184 ± 0.014 | 0.271 ± 0.033

Row | Sequence | self-splicing fitness (ln) (30 °C) | self-splicing fitness (ln) (37 °C)
73 | AGGUAGCAAUAUUACGGCCG | -0.244 ± 0.018 | 0.0571 ± 0.038
74 | AGGUAGCAAUAUUACGGGAU | -2.755 ± 0.02 | -1.49 ± 0.034
75 | AGGUAGCAAUAUUACGGGCA | -0.941 ± 0.017 | -0.414 ± 0.034
76 | AGGUAGCAAUAUUACGGGCC | -1.74 ± 0.024 | -1.5 ± 0.041
77 | AGGUAGCAAUAUUACGGGGA | -3.342 ± 0.031 | -2.42 ± 0.039
78 | AGGUAGCAAUAUUACGGGGU | -3.984 ± 0.027 | -2.94 ± 0.038
79 | AGGUAGCAAUAUUACGGGUU | -2.347 ± 0.017 | -1.72 ± 0.035
80 | AGGUAGCAAUAUUACGGUAG | -3.883 ± 0.03 | -2.99 ± 0.042
81 | AGGUAGCAAUAUUACGUAAG | -2.267 ± 0.017 | -1.25 ± 0.034
82 | AGGUAGCAAUAUUACGUACA | -0.927 ± 0.016 | -0.257 ± 0.034
83 | AGGUAGCAAUAUUACGUACG | -1.19 ± 0.015 | -0.48 ± 0.034
84 | AGGUAGCAAUAUUACGUGAU | -2.479 ± 0.016 | -1.53 ± 0.034
85 | AGGUAGCAAUAUUACGUUCG | -0.889 ± 0.014 | -0.42 ± 0.034
86 | AGGUAGCAAUAUUACGUUGG | -3.813 ± 0.028 | -2.95 ± 0.041
87 | AGUAAGCAAUAUUACGACGA | -1.15 ± 0.073 | -0.782 ± 0.079
88 | AGUAAGCAAUAUUACGAGAU | -3.09 ± 0.15 | -0.575 ± 0.16
89 | AGUAAGCAAUAUUACGAGGA | -2.06 ± 0.33 | -2.55 ± 0.49
90 | AGUAAGCAAUAUUACGAUAU | -1.95 ± 0.13 | -0.493 ± 0.15
91 | AGUAAGCAAUAUUACGAUUA | -0.948 ± 0.082 | 0.25 ± 0.092
92 | AGUAAGCAAUAUUACGAUUC | -1.31 ± 0.14 | -0.96 ± 0.22
93 | AGUAAGCAAUAUUACGCAAU | -2.52 ± 0.14 | -1.17 ± 0.16
94 | AGUAAGCAAUAUUACGCACA | -0.655 ± 0.082 | -0.356 ± 0.091
95 | AGUAAGCAAUAUUACGCAGU | -4.13 ± 0.17 | -2.98 ± 0.19
96 | AGUAAGCAAUAUUACGCGAU | -3.74 ± 0.18 | -2.29 ± 0.18
